This test has as its target SARS-CoV-2 spike protein receptor-binding domain (RBD) (SARS-CoV-2, UniProt P0DTC2 319-541). In words: SPR.

Among the data in publication PMC8786865 (2022) are Kd values, retold here.

B1: #41 (antibody, V domains shown)
VH: QVQLVQSGAEVKKPGASVKVSCKVSGYTSPATIHWVRQAPGKGLEWMGGISPYKGDTIYAQKFQGRVTMTEDTSTDTAYMELSSLKSEDTAVYYCAKDSYYYDSSGSGLGGGFDYWGQGTLVTVSS
VL: DIQMTQSPSSVSASVGDRVTITCRASRDISSYLAWYQQKPGKAPKLLIYGASTRASGVPSRFSGSGSGTDFTLTISSLQPEDFANYYCLQYSIYPWTFGGGTKVEIK
The Kd is a measure of binding affinity in units of concentration. Read a high Kd as a looser complex. With B1, the affinity, expressed as Kd, was 0.295 nM. This lies in the sub-nanomolar range.
